Values of other authors in PMC5750235.
pKd: −log10 of the molar value.

Biological target: IgE (Homo sapiens) (UniProt P01854)
Sequence (P01854 whole entry): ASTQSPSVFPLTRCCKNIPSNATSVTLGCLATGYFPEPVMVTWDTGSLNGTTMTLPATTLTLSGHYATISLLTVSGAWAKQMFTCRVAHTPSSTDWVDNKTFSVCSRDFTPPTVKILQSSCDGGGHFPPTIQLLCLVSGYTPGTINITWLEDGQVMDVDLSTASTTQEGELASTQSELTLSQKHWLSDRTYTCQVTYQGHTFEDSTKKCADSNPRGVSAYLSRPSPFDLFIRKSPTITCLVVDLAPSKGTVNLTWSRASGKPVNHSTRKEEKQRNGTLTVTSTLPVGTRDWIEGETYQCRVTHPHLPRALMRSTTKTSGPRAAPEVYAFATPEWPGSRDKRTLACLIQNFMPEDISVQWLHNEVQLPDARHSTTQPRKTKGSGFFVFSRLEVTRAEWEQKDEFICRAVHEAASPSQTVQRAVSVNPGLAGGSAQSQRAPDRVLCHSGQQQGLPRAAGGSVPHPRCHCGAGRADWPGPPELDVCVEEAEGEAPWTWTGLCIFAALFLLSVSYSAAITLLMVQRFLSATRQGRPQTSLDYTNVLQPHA

Chain of CD23 (P06734 48-321): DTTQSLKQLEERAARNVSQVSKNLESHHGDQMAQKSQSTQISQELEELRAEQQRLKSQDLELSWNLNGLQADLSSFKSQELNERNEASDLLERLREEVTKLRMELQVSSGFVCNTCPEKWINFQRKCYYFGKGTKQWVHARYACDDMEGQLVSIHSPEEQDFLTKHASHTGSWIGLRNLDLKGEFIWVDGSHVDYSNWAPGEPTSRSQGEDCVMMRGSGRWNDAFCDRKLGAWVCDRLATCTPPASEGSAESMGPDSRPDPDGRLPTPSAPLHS

CD23 (from UniProt P06734)
pKd: 5.70
